Reference: the nanobody polyreactivity screen of Harvey et al. (2022)

Experiment: yeast display, Sf9 membrane polyspecificity reagent, FACS + sequencing; frameworks hold sequencing errors
How it was run: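 Nanobodies came from a synthetic yeast display library in Saccharomyces cerevisiae BJ5465, induced with galactose for 36–48 hours and stained for 1 hour at 4 °C with 10% biotinylated, detergent-solubilized Sf9 membrane reagent. Cells were enriched on streptavidin microbeads and then FACS-sorted, with low and high (top ~1%) gates set on anti-HA fluorescence for expression and streptavidin fluorescence for reagent binding. Each polyreactivity label reflects the gate a clone came from. Genes were amplified by colony PCR, sequenced by MiSeq 2 × 250 and filtered by CDR length.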
For “QVQLVDSCGGLVQAGGSLRLSCAASGSISYYYAMGWYRQAPGKERELVAAITRTGTTNYADSVKWRFTISRDNAKNTVFLQMNSLKPEDTAVYYCAKRSTGRLQSYNYWGQGTQVTVSS”, the “polyreactivity (PSR sort gate)” value was “low polyreactivity”.
With “QVQLVESGGGLVQAGGSLRLSCAASGRTLGDYDMGSYRQAPGKERELVAAINWSGGDTYYADSVKGRFTISRDNANNTVYLQMNSLKPEDSAVYYCNADYVYTRYDYWGQGTQVTVSS” the “polyreactivity (PSR sort gate)” value was “high polyreactivity”.
In the case of “QVQLEESGGGLVQAGGSLRLSCAASGFTFYSYVMGWYRPAPGKVTELVAAIYWSGGSTYYADSVKGRFTISRDNAKYTVYLQMNSLKPEDTAVYYCAARRYASRNGYLYDYWGQGTQVTVSS”, the “polyreactivity (PSR sort gate)” value is reported as “high polyreactivity”.
For “QVQLVESGGGLVQAGGSLRLSCAASGSIRSYAMGWYRQAPGKERELVAAITRSGGSTYYADSVKGLFTISRDNAKNTVYLQMNSLKPEDTAVYYCAARYTYSYPLFGSWGQGTQVTVSS”, the “polyreactivity (PSR sort gate)” value was “high polyreactivity”.
In the case of “QVQLVESGGGLVQAGGTLRLSCAASGIIFVWNAMGWYRQAPGKERELVAAITNGGSTYYADSVKGRFTISRDNAKNTVYLQMNSLKPEDTAVYYCNVRYFFRFRDDYWGQGTQVTVSS”, the “polyreactivity (PSR sort gate)” value is reported as “low polyreactivity”.
In the case of “QVQLVESGGGLVQAGGSLRLSCAASGRIFFGYAMGWYRQAPGKERELVASISRGGSTNYADSVKGRFTISRDNAKNTVYLQMNSLKPEDTAVYYCAASRYLQRYGMYYWGQGTQVTVSS”, the “polyreactivity (PSR sort gate)” value is reported as “high polyreactivity”.
For “QVKLVESGGGLVQAGGSLRLSCASSGFTFFHYAKGWYRQAPGKERELVAAISWSGGSTYYADTVKGRFTISRDNAKNTVYLQMNSLKPEDTAVYYCAADGGSTAFDYWGQGTQVTVSS”, the “polyreactivity (PSR sort gate)” value was “low polyreactivity”.
In the case of “QVQLVDSGGGLVQAGGSLRLSCAASGSTFSTYPMGWYRQAPGKERELVAAISRSGGTTYYADSVKGRFTISRDNAKNTVYLQMNSLKQEETAVYYCNAVTRYTQIMDYWGQGTQVTVSS”, the “polyreactivity (PSR sort gate)” value is reported as “high polyreactivity”.
For “QVQHVESGGGLVQAGGSLRLSCAASARTFHGYPLGVYRQAAGKETELVARINWSDGRTYYADSVKGRFTMSRDNAKNTVYFQMNSLKPEDTAFYYCAAEKTVSYAPAWYYYWGQGTQVTVSS”, the “polyreactivity (PSR sort gate)” value was “low polyreactivity”.
For “QVPLVESGGRLVQAGGSLRLSCAASGSTIGPYTMGWYRQAPGKERELVATISSGGSTYSADSVKGRFTISRDNEKNTVYLQMISLKPEDTAVYYCAARYRSIYDYWGQGTQVTVSS”, the “polyreactivity (PSR sort gate)” value was “low polyreactivity”.
With “QVQLVESGGGLVQAGGSLRLSCAASGRIFYYNAMGWYRQAPGKERELVASITGSGGSTYYADSVKGRFTISRDNAKNTVYLQMNSLKPEDTAVYYCANREYLYPYYYVAKYDYWGQGTQVTVSS” the “polyreactivity (PSR sort gate)” value was “low polyreactivity”.
With “QVQLVESGGGLVQAGGSLRLSCAASGSIFWGNTMGWYRQAPGKERELVAAISRSGSSTYYADSVKGRFTISRDNAKNTVYLQMNSLKPEDTAVYYCAASVPYYTGYYYNAYEYWGQGTQVTVSS” the “polyreactivity (PSR sort gate)” value was “high polyreactivity”.
With “QVQLVESGGGLVQAGGSLRLSCAASGSTSVDYTMGWYRQAPGKESELVAAIDYNGDSTYYADSVKGRFTISRDNAKITVYLQMNRLKPEDTAVYYCAADVWTLDPDEYDYWGQGTQVTLSS” the “polyreactivity (PSR sort gate)” value was “low polyreactivity”.
With “QVQLVESGGGLVQAGGSLRVSCAASGFTFALYAMGWYRQAPGKERELVAAISWSGGTTYYADSVKGRFTISRDNEKNTVDLQMNSLNPEDTAVYYCNAYTRSRGYDYWGQGTQVTVSS” the “polyreactivity (PSR sort gate)” value was “high polyreactivity”.
For “QVQLVESGGGLVQAGGSLRISCAASGRIFRYYAMGWYRQAPGKERELVAAISNSGGRTYYADSVKRRFTISRDNAKNSVYLQMNSLKPEDTAVYYCKKAHSYRGVSDSDMGYWGQGTEVTVSS”, the “polyreactivity (PSR sort gate)” value was “high polyreactivity”.
For “QVQLVESGGGLVQAGGSLRLSCAASGSTFQTYARGWYRQAPGKERELVASIDYSGGSTYYADSVKGRFTISRDNAKNTVYLQMNSLKPEDTAVYYCAKALSQTWYDGQYGYWGQGTQVTVSS”, the “polyreactivity (PSR sort gate)” value was “low polyreactivity”.
With “QVQLVESGGGLVQAGGSLRLSCAASGRIFTRYAMGWYRQAPGKERELVATITRRGGSTYYADSVKGRFTISRDNAKNTVYLQMNSLKPEDTAVYYCAKDRTTSSFGEYDYWGQGTQVTVSS” the “polyreactivity (PSR sort gate)” value was “high polyreactivity”.
With “QVQLVESGGGLVQAGGSLRLSCAASGRTFYYYGMGWYRQAPGKERELVASITNGGNTNYADSVKGRFTISRDNAKYTVYLQMNSLKPEDTAVYYCAKDVPYWRPVVRYDYWGQGTQVTVSS” the “polyreactivity (PSR sort gate)” value was “low polyreactivity”.
For “QDQLVESGGGLVQAGGSLRLSCASSVRTIYIYAMGWYRHPPGKESEFVASITGRGTRTYYADSVKGRFTISRDNAKNTVYLQMNSLTQEDTAVYYCNARGKVQSSYDEDYWGQGTQVTVSS”, the “polyreactivity (PSR sort gate)” value was “high polyreactivity”.
For “QVQLVESGGGLVQAGGSLRLICAASGRTFAYYAMGWYRQAPGKERELVATITWNGGSTYYADSVKGRFTISRDNAKNTVYLQMNSLKPEDTAVYYCAKSVGWWSPPLGDYWGQGTQVTVSS”, the “polyreactivity (PSR sort gate)” value was “low polyreactivity”.
For “QVQLVESGGGLVQAGGSLRLSCAASGSPFRTYAIGWYRQAPGKERELVASIDSTGSTNYADSVKGRFTISRDNAKNTVYLQMNCLKAEVTAVYYCAAETYSYPPFYAYDYWGQGTQVTVSS”, the “polyreactivity (PSR sort gate)” value was “low polyreactivity”.
With “QVQLVESGGGLVQAGGSLRLSCAASGFIFVAYAMGWYRQAPGKERELVATIDSSGGTTYYADSVKGRFTISRDNAKNTVYLQMNSLKPEDTAVYYCNAPIYPYREFGRDYWGQGTQVTVSS” the “polyreactivity (PSR sort gate)” value was “low polyreactivity”.
With “QVQLVESGGGLVQAGGSLRLSCAASGFTFKYYAMGWYRQAPGKERELVAAINRSGGSTHYADSVKGRFTISRDIAKNTVYLQINSLKPEDTAVYYCAATGRRRTYSEYEYWGQGTQVTVSS” the “polyreactivity (PSR sort gate)” value was “high polyreactivity”.
For “QVQLVESGGGLVQAGGSLRLSCAASGGILVGYAMGWYRQAPGKERELVAAINYSGGSTNYADSVKGRFTISRDNAKNTVYLQMNSLKPVDTAVYYCAARSTARYGYWGQGTQVTVSS”, the “polyreactivity (PSR sort gate)” value was “low polyreactivity”.
For “QVQLVESGGGLVQAGGSLRLSCAASGSTFQSYAMGWYRPAPGKERELVATITWSSGRTYYADSVKGRFTISRDNAKNTVYLQMKSLKPEDTAVYYCAARKRPFYKYDYWGQGTQVTVSS”, the “polyreactivity (PSR sort gate)” value was “high polyreactivity”.
For “QVQLHESGGGLLQAGGTLRLSCAASGTISYAGPMCWYRQSPGKEREFVAGIGVGSNTNYADSVKGRYTIIRDNAKNTVYLQMNSLKPEDTAVYYCAVGGFAPLGRPYWGQGTQVTVSS”, the “polyreactivity (PSR sort gate)” value was “low polyreactivity”.
For “QVQLVESGGGLVQAGGSLRLSCAASGRTFSGYAMGWYRQAPGKERELVAAIRLSGGSTYYADSVKGRFTISRDNAKNTVYLQMNSLKPEVTAVYYCARYHGFGYDYWGQGTQGTVSS”, the “polyreactivity (PSR sort gate)” value was “low polyreactivity”.
In the case of “QVQLVESGGGLVQAGGSLRLSCAASGRIFYSYAMGWYRQATGKEREMVASISRSGAITNYADSVKGRFTISRDNAKNPVYLQMNSLIPEDTAVYYCAARLRRVYPPYDYWGQGTQVTVSS”, the “polyreactivity (PSR sort gate)” value is reported as “high polyreactivity”.
In the case of “QVQLVESGGRLVQAGGSLRLSCAASGSIIAWYVLGWYRRAAGKERELVAGIDTSGGSTFYADSVMGRFTISRDIAKNTVYLQMNSLKTEATAVYYCAADTWYRGPWEFDYWGQGTQVTVSS”, the “polyreactivity (PSR sort gate)” value is reported as “low polyreactivity”.
For “QVQLVESGRGLVQAGGSLRLSCAASGSIFEINAMGWYRQAPGIERELVAAITGSGGSTHYADSVKGRFTISRDNAKNTVSLQMNSLKPEDTAVYYCAAVPRYQYGYWGQGTQVTVSS”, the “polyreactivity (PSR sort gate)” value was “low polyreactivity”.
For “QVQLVESGGGLVQAGGSLRLSCAASGRIFTYNPMGWYRQAPGKERELVAAISTRGGTTRYADSVKGRFTISRDNAKNTVYLQMNSLKPEDTAVYSCNAVSRGSRWDGLVRLDYWGQGTQVTVSS”, the “polyreactivity (PSR sort gate)” value was “high polyreactivity”.
In the case of “QVQLVESGGGLVQAGGSLRLSCAASGNTFKGYAMGSYRPAPGKERELVAAISWSGSSTYYADSVKGRFTISRDNAKNTVYLQMNSLKPEDTAVYYCAKAFKYTSPRRPYDYWGQGTQVTVSS”, the “polyreactivity (PSR sort gate)” value is reported as “high polyreactivity”.
